According to patent publication US20250186597A1, “TARGETED IMMUNE ACTIVATION WITH IL-18 IMMUNOCYTOKINES” (BRIGHT PEAK THERAPEUTICS AG, priority 2023, published 2025):

T1: human IL-18BP (Homo sapiens, UniProt O95998)
T1 construct: His
T1 sequence (O95998 31-194): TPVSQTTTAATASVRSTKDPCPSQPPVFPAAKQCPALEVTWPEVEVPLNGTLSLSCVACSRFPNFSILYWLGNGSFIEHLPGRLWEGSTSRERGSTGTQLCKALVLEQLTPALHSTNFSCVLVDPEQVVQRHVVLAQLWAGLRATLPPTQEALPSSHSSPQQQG


Tests used:
[1] = test system: NK-92 cells; assay: IL-18 binding protein inhibition cellular assay in NK-92 cells (Example 4, used in Example 22C); format: cell-based, human; details: inhibition by IL-18BP of IFNg stimulation in NK92 cells
Experimental: The NK cell line NK-92 derived from a patient with lymphoma (ATCC® CRL-2407™) is cultured in aMEM medium supplemented with 20% FCS-Glutamax, 25 µM B-mercaptoethanol, and 100 IU/mL of recombinant human IL-2.
On the day of experiment, cells are harvested and washed with aMEM medium without IL-2 and containing 1 ng/mL of recombinant human IL-12. After counting, the cells are seeded at 100,000 cells/well in a 384 well titer plate and incubated at 37° C./5% CO2. Sixteen 2-fold serial dilutions of Fc-fused human IL-18 binding protein isoform a (IL-18BPa) are prepared in aMEM medium. 1 ng/mL of IL-12 containing 2 nM of each IL-18 polypeptide variant is added to the NK-92 cells. The final IL-18 analyte concentration is 1 nM, and the final IL-18BPa concentration ranged from 566 nM to […].
After incubating the cells for 16-20 hr at 37° C./5% CO2, 5 μL of the supernatant is carefully transferred to a 384 microwell OptiPlate. IFNγ levels are measured using a human IFNγ AlphaLISA Assay Kit. Briefly, 10 μL of 2.5× AlphaLISA anti-IFNγ acceptor beads and biotinylated antibody anti-IFNγ mix are added to 5 μL of NK-92 supernatants. The mixtures are incubated for 1 hr at room temperature with shaking. Under subdued light, 2.5 μL of 2×SA donor beads are pipetted in each well and incubated for 30 min at room temperature with shaking. AlphaLISA signals are then measured on an EnSpire™ plate reader using 680 nm and 615 nm as excitation and emission wavelengths, respectively. Half maximal inhibitory concentrations (IC50) are calculated based on a variable slope and four parameter analysis using GraphPad PRISM software.
(§1) The experiments described in Example 4 for determination of IFNg stimulation in NK92 cells (and inhibition by IL-18 BP) were performed substantially as described on IL-18 polypeptides in order to assess their activities and their suitability for incorporation into immunocytokine compositions. It is expected that the IL-18 polypeptides provided below would behave analagously to C086 (SEQ ID NO: 30) when incorporated into an immunocytokine composition as those otherwise provided herein.

[2] = test system: NK-92 cells; assay: IFNγ induction cellular assay in NK-92 cells (Example 4, used in Example 22C); format: cell-based, human; details: IFNg stimulation in NK92 cells
Experimental: The ability of immunocytokines and IL-18 polypeptides provided herein are assessed for ability to induce IFN[…] in a cellular assay according to the protocol below.
The NK cell line NK-92 derived from a patient with lymphoma (ATCC® CRL-2407™) is cultured in aMEM medium supplemented with 20% FCS, Glutamax, 25 µM B-mercaptoethanol, and 100 IU/mL of recombinant human IL-2.
On the day of experiment, cells are harvested and washed with aMEM medium without IL-2 and containing 1 ng/mL of recombinant human IL-12. After counting, cells are seeded at 100,000 cells/well in a 384 well titer plate and incubated at 37° C./5% CO2. Sixteen 4-fold serial dilutions of IL-18 analytes are prepared in aMEM medium, and 1 ng/mL of IL-12 were added to the NK-92 cells. Final IL-18 analyte concentrations range from 56 nM to 5×10^−5 pM.
After incubating the cells for 16-20 hr at 37° C./5% CO2, 5 μL of supernatant is carefully transferred to a 384 microwell OptiPlate. IFNγ levels are measured using a human IFNγ AlphaLISA Assay Kit. Briefly, 10 μL of 2.5× AlphaLISA Anti-IFNγ acceptor beads and biotinylated antibody anti-IFNγ mix are added to the 5 μL of NK-92 supernatants. The mixtures are incubated for 1 hr at room temperature with shaking. Under subdued light, 2.5 μL of 2× streptavidin (SA) donor beads are pipetted into each well, and the wells are incubated for 30 min at room temperature with shaking. AlphaLISA signals are then measured on an EnSpire™ plate reader using 680 nm and 615 nm as excitation and emission wavelengths, respectively. Half maximal effective concentrations (EC50) are calculated based on a variable slope and four parameter analysis using GraphPad PRISM software.
as §1

[3] = biological target: T1, human IL-18BP; assay: IL-18BP binding alphaLISA assay (Example 4, used in Example 22B); details: IL-18BP AlphaLISA
Experimental: A human IL-18BP AlphaLISA Assay Kit is used to determine the binding affinity of each immunocytokine and IL-18 variant for IL-18BP, which detected the presence of free form IL-18BP.
Sixteen three-fold serial dilutions of IL-18 analytes are prepared in aMEM medium supplemented with 20% FCS, Glutamax, and 25 µM β-mercaptoethanol in the presence of 5 ng/mL of His-tagged human IL-18BP. Final IL-18 analytes concentration range from 2778 nM to […].
After 1 hr incubation at room temperature, free IL-18BP levels are measured using a […]. In a 384 well OPTIplate, 5 μL of 5× Anti-IL-18BP acceptor beads are added to 7.5 μL of an IL-18/IL-18BP mix. After 30 min incubation at room temperature with shaking, 5 μL of biotinylated Anti-IL-18BP antibodies are added to each well. The plate is incubated further for 1 hr at room temperature. Under subdued light, 12.5 μL of 2× streptavidin (SA) donor beads are pipetted into each well, and the wells are incubated with shaking for an additional 30 min at room temperature. The AlphaLisa signal is then measured on an Enspire plate reader with 680 and 615 nm as excitation and emission wavelengths, respectively. The dissociation constant (KD) is calculated based on a variable slope, four parameter analysis using GraphPad PRISM software.
An IL-18 binding protein AiphaLISA experiment substantially as described in Example 4 was performed on IL-18 polypeptide which can be incorporated into immunocytokine compositions as provided herein to assess ability to bind to IL-181BP. It is expected that the IL-18 polypeptides provided below would behave analogously to C086 (SEQ ID NO: 30) when incorporated into an immunocytokine composition as those otherwise provided herein.

IC50 [1] [nM] | EC50 [2] [nM] | Kd [3] [nM] | Molecule
1060 | 0.144 | 822 | 42 (protein) YFGKLKSKLSVIRNLNDQVLFIDQGNRPLFEDMTDSDCRDNAPRTIFIISMYADAQPRGMAVAISVKCEKISTLSCENKIISFKEMNPPDNIKDTKSDIIFFQRSVPGHDNKMQFESSSYEGYFLACEKERDLFKLILKKEDELGDRSIMFTVQNED
0.189 | 7.4 | > 1000 | 46 (protein) YFGKLKSKLSVIRNLNDQVLFIDQGNRPLFEDMTDSDCRDNAPRTIFIISGYADAQPRGMAVTISVKCEKISTLSCENKIISFKEMNPPDNIKDTKSDIIFFQRSVPGHDNKMQFESSSYEGYFLACEKERDLFKLILKKEDELGDRSIMFTVQNED
> 1000 | 17.2 | 913 | 55 (protein) YFGKLESKLSVIRNLNDQVLFIDQGNRPLFEDMTDSDSRDNAPRTIFIISMYADSQPRGMAVAISVKSECISTLSSENKIISFKEMNPPDNIKDTKSDIIFFQRSVPGHDNKMQFESSSYEGYFLASEKERDLFKLILKKEDELGDRSIMFTVQNED
733 | 0.037 | 373 | SEQ ID NO: 68: IL-18 polypeptide: V11I, C38A, M51G, K53A, C76A, C127A (protein) YFGKLESKLSIIRNLNDQVLFIDQGNRPLFEDMTDSDARDNAPRTIFIISGYADSQPRGMAVTISVKCEKISTLSAENKIISFKEMNPPDNIKDTKSDIIFFQRSVPGHDNKMQFESSSYEGYFLAAEKERDLFKLILKKEDELGDRSIMFTVQNED
0.444 | 0.115 | 0.03 | 47 (protein) YFGKLESKLSVIRNLNDQVLFIDQGNRPLFEDMTDSDSRDNAPRTIFIISMYKDSQPRGMAVTISVKSEKISTLSSENKIISFKEMNPPDNIKDTKSDIIFFQRSVPGHDNKMQFESSSYEGYFLASEKERDLFKLILKKEDELGDRSIMFTVQNED
7.52 | 0.012 | 0.66 | C144: IL-18 polypeptide: V11I, C38A, K53A, T63A, C76A, C127A (protein) YFGKLESKLSIIRNLNDQVLFIDQGNRPLFEDMTDSDARDNAPRTIFIISMYADSQPRGMAVAISVKCEKISTLSAENKIISFKEMNPPDNIKDTKSDIIFFQRSVPGHDNKMQFESSSYEGYFLAAEKERDLFKLILKKEDELGDRSIMFTVQNED
> 1000 | 0.0268 | 340 | 50 (protein) YFGKLKSKLSVIRNLNDQVLFIDQGNRPLFEDMTDSDCRDNAPRTIFIISMYADSQPRGMAVAISVKCEKISTLSCENKIISFKEMNPPDNIKDTKSDIIFFQRSVPGHDNKMQFESSSYEGYFLACEKERDLFKLILKKEDELGDRSIMFTVQNED
47.6 | 0.079 | 25.8 | C147: IL-18 polypeptide: V11I, C38A, K53A, D54A, C76A, C127A (protein) YFGKLESKLSIIRNLNDQVLFIDQGNRPLFEDMTDSDARDNAPRTIFIISMYAASQPRGMAVTISVKCEKISTLSAENKIISFKEMNPPDNIKDTKSDIIFFQRSVPGHDNKMQFESSSYEGYFLAAEKERDLFKLILKKEDELGDRSIMFTVQNED
10.2 | 0.087 | 9.74 | C145: IL-18 polypeptide: V11I, C38A, K53A, S55A, C76A, C127A (protein) YFGKLESKLSIIRNLNDQVLFIDQGNRPLFEDMTDSDARDNAPRTIFIISMYADAQPRGMAVTISVKCEKISTLSAENKIISFKEMNPPDNIKDTKSDIIFFQRSVPGHDNKMQFESSSYEGYFLAAEKERDLFKLILKKEDELGDRSIMFTVQNED
1.62 | 0.138 | 8.86 | C143: IL-18 polypeptide: V11I, C38A, K53A, C76A, C127A (protein) YFGKLESKLSIIRNLNDQVLFIDQGNRPLFEDMTDSDARDNAPRTIFIISMYADSQPRGMAVTISVKCEKISTLSAENKIISFKEMNPPDNIKDTKSDIIFFQRSVPGHDNKMQFESSSYEGYFLAAEKERDLFKLILKKEDELGDRSIMFTVQNED
0.114 | 0.488 | 0.21 | 48 (protein) YFGKLESKLSVIRNLNDQVLFIDQGNRPLFEDMTDSDSRDNAPRTIFIISMYKDSQPRGMAVTISVKSECISTLSSENKIISFKEMNPPDNIKDTKSDIIFFQRSVPGHDNKMQFESSSYEGYFLASEKERDLFKLILKKEDELGDRSIMFTVQNED
146 | 0.045 | 50.2 | 57 (protein) YFGKLKSKLSVIRNLNDQVLFIDQGNRPLFEDMTDSDSRDNAPRTIFIISMYADSQPRGMAVTISVKCEKISTLSCENKIISFKEMNPPDNIKDTKSDIIFFQRSVPGHDNKMQFESSSYEGYFLACEKERDLFKLILKKEDELGDRSIMFTVQNED
23.5 | 0.962 | 446 | 54 (protein) YFGKLKSKLSVIRNLNDQVLFIDQGNRPLFEDMTDSDSRDNAPRTIFIISMYADSQPRGMAVTISVKSECISTLSSENKIISFKEMNPPDNIKDTKSDIIFFQRSVPGHDNKMQFESSSYEGYFLASEKERDLFKLILKKEDELGDRSIMFTVQNED
